Reference: patent publication US20170066801A1, “ALPHA3BETA HYDROGEN BOND SURROGATE MACROCYCLES AS MODULATORS OF RAS” (NEW YORK UNIVERSITY, priority 2014, published 2017)
Non-standard residues stand in square brackets, D forms with d. Residues, ends and D or L forms follow the SMILES beside them. No end group written: not given here. β3hI = CC[C@H](C)[C@H](N)CC(=O)O; β3hE = N[C@@H](CCC(=O)O)CC(=O)O; β3hA = C[C@H](N)CC(=O)O; Flu = fluorescein

Columns and labels:
HRas^(1-166) = target: T1, HRas^(1-166) (Homo sapiens, UniProt P01112); experiment: In vitro pulldown binding assay with 6×His-tagged HRas 1-166 and fluorescein-tagged SOS peptides; details: fluorescein-tagged peptides, 4° C., 1 hour
T1 construct: 6×His-tagged HRas WT 1-166; made in house
Method: Recombinantly purified 6×His-tagged HRas WT 1-166 was incubated with Ni-NTA sepharose beads, generating recombinant Ras on solid support. FITC labeled HBS peptides were incubated in the presence of recombinant HRas-6×His/Ni-NTA Sepharose complex at 4° C. for 1 hour. Beads complexes were pelleted and washed 5× with protein buffer (20 mM Tris-HCl pH 7.6, 50 mM NaCl, 4 mM EDTA, 10 mM MgCl2), resuspended in reducing buffer (126 mM Tris-HCL pH 6.8, 20% glycerol, 4% SDS, 0.02% bromophenol blue, 2.5% β-mercaptoethanol), boiled for 10 minutes at 95° C., and subjected to SDS-PAGE with an acrylamide percentage of 20% to allow for sufficient resolution of the HBS helices. SDS-PAGE gels were imaged using an ImageQuant™ LAS 4000 biomolecular imager (GE Healthcare, Piscataway, N.J., USA). Quantification of fluorescence by FITC-HBS helices in gel was determined by manufacturer provided ImageQuant™ TL software. Raw values were normalized to total input and plotted on a semilog graph with GraphPad Prism version 6.00 for OSX (GraphPad Software, La Jolla Calif. USA, www.graphpad.com).
The binding affinity of the designed compounds for Ras was determined using in vitro pulldown assays with recombinantly purified 6×His-tagged HRas^(1-166) and fluorescein-tagged SOS peptides (FIGS. 8 and 9, and Table 2). […]

[1] = target: 6×His-tagged HRas WT 1-166 (UniProt P01112); experiment: in vitro pull-down: fluorescein-tagged peptide on 6×His-HRas 1-166 / Ni-NTA beads, in-gel fluorescence

CC[C@H](C)[C@@H](CC(=O)N[C@@H](Cc1ccc(O)cc1)C(=O)N[C@@H](CCCNC(=N)N)C(=O)N[C@@H](CC(C)C)C(=O)N[C@@H](CCC(=O)O)CC(=O)N[C@@H](CC(C)C)C(=O)N[C@@H](CC(C)C)C(=O)N[C@@H](CCCCN)C(=O)N[C@@H](C)CC(=O)N[C@@H](CCC(=O)O)C(=O)N[C@@H](CCC(=O)O)C(=O)N[C@@H](C)C(=O)N[C@@H](CC(N)=O)C(N)=O)NC(=O)CNC(=O)[C@H](CCC(=O)O)NC(=O)[C@H](Cc1ccccc1)NC(C)=O [α3β-UNCSOS, Ac-FEGiYRLeLLKaEEAN-NH2] (Ac-FEG[β3hI]YRL[β3hE]LLK[β3hA]EEAN-NH2)
Kd (HRas^(1-166)): 30.6 ± 12 µM

B1: α3β-UNCSOS-Flu (peptide)
peptide: Ac-FEG[β3hI]YRL[β3hE]LLK[β3hA]EEANK(Flu)-NH2
modifications: not fully specified (residue 3); printed as Ac-FEG*iYRLeLLKaEEANK(Flu)-NH2
fold weaker affinity than α3β-HBSSOS [1]: 136 fold

B2: α-HBSSOS (fluorescein-tagged) (peptide)
peptide: FEGIYRLELLKAEEAN
modifications: not fully specified; also: hydrogen bond surrogate macrocycle at N-terminus, fluorescein tag, site and linker not given here
Kd [1]: 7.75 µM
